Assay: soluble on expression in E. coli; label from the status in PepcDB or PDB records

Soluble on expression in E. coli, not soluble:
MGSDKIHHHHHHMAKLKISKKISTALINSLGAGVVPRVGVEYIAVGREKELKSLLQNLDDIAEGVAAFRFIIGNYGSGKSFLLQLIRNRAMEQGFVVADADLSSERRLAGSNNEGVATYRELMSHLATKTRPDGGALVSILEGWINKIQQEVVKETEMRPNDDGFDDQVESKIREVVQYIEGLVHGFDFGSVIIAYWRGYRMDDDNLKNAAMRWLRGEFTTKVEAKAALGVRVIIDDDSWYDYIKLFAKFVAEIGYKGLLILVDEAVHLYQISTTVTREKNYNRLLAMFNDTMQCKAEHLGIVVGGTTKFLEDPKRGLFADQAWQRRTKESRFVAQANVQENSGPVIRLNPLSEAEILTLLQRLAEIHALNFGYEQTLTNRELKEFVQEIINRLGAEALLTPGEIVRDFMSVLNILHQNPGIVFAELIHGSKFKPTAMGKNPNVDENGAAEFSL
MGSDKIHHHHHHMAKYPNTFHRASLMKQMTFADAEYAGKRKHTRRERFLIEMDQVVPWKGLIALIEPHYPKGEGGRPAYPLMAMLRIHLMQNWFGYSDPAMEEALYETTILRQFAGLSLDRIADETTILNFRRLLEKHELAGGILQVINGYLGDRGLMLRQGTVVDATIIHAPSSTKNKDGKRDPEMHQTKKGNQYFFGMKAHIGVDAESGLVHSLVGTAANVADVTQVDQLLHGEETYVSGDAGYTGVDKRAEHQDRQMIWSIAARPSRYKKHGEKSLIARVYRKIEFTKAQLRAKVEHPFRVIKRQFGYTKVRFRGLAKNTAQQATLFALSNLWMVRKRLLAMGEVRL
MGSDKIHHHHHHMALPVLICDDSAMARKQMARTLPKDWDVDITFATNGAEGLEAIRAGKGEVVFLDLNMPVMDGYEVLQTIQQQDLPALVIVVSGDIQIKAHERVKALGALDFIQKPVSAEAIAGILQEYGILVPGEGEGDEAEDNPLLKVDMRDACQEIANVAMGRAADLLAKLLDVFVVLPIPNVNVLEVSELTMALKATETSAKVTALCQGFIGAGVAGEALLLFHDSSFQDMAKLMKLDGPGDEATEVEVLIDTGNVLIGAFLNGIAEQLDMHFSQAHPVVLGRHCTVNDLIHDNAEKWHRTLAMEINYRIEDHNIECDLLLLFTEDSLPTLNYKLGYMLDTD
MGSDKIHHHHHHMAPDLASLQRISGDSAIDQWLQVPGSWVEEPNERRGGASGVQRVYTGDGRLLYRKQQTGHVYRDWQRPFGYPTAMRERDALRAFESLGIRVPRLVYSGCRKVDGQWQALLVTEALEGFSSLDECYARGDQDRWGEAKHQRILQQIGATIARMNLAHWQHGCLYPKHIFVRVEGEAIEVALIDLEKSRRRLTVNKASQHDLKQLKRRSSWTGAQWQAFIYGYQTAFGSAIKGLQT
MGSDKIHHHHHHMAPRTKTRERIVQASLELFNQQGERCITTNHIAAHMEISPGNLYYHFANKQVIIAELFTQYETLVGSFLTLRTDRLPTIEDKRDYFLAMIDAMWRYRFLHQDLEHLLTSDAELARRYRRFSYRCLMQAMNIYRGFIKAGILQMDESQIEWTSLNTWIVLTSWVRFLCTNRENNAELNESAIRRGVYQVLMLESVFVAPQAREAFDALCETFHSSLPEALA
MGSDKIHHHHHHMARMFYDEMHDAGGECRSHYREFARWLADTPEEQLLQRRREADLLFHRAGITFTLYGDEQGTERLIPFDTIPRSIPAAEWAHIEAGCIQRVQALNLFLADLYHEQRILKAGVIPAEQVLANDQYQLAMQGLDLPGNVYAHIAGVDLVRDGSGNYYVLEDNLRTPSGVSYMLENRKMMMRLFPELFVRQRVAPIDHYPDLLLDTLKRASDVESPSVVVLTPGRFNSAYFEHAFLAREMGVELVEGADLFVRDERVYMRTTAGPQPVDVIYRRIDDAFLDPLAFNPDSLLGVPGLLAAYRAGNLVLANAIGTGVADDKSIYPYVPDMIRFYLGEDPLLHNVPTWQCRKPKELAHVLAHLPELVVKETQGSGGYGMLVGPAASREEIELFRERLKARPEAYIAQPTLSLSTCPTFVESGVAPRHIDLRPFVLSAPDRVRLVPGGLTRVALREGSLVVNSSQGGGTKDTWVVEE
MGSDKIHHHHHHMARPRKTIVSLDDTPYYHCCSRVVRKAFLCGIDSATGENFEHRRAWVEGRMFELATIFAMDICAYAVMSNHLHIVLRVDAEQAKQWTDKQVLIQWHKGFKGTLLTQRFVKDEVLDEFELKTVIDSVAVYRERLTSISWFIRALCEPIARMANKEDGCTGHFWEGRFKSQALLDEAAVLACMAYVDLNPVRAKMAATPETSDYTGIQRRINAALKGEQPNELLPFLGNERDNMPKGLMFSAKDYLLLVEDTGRIIRDDKRGAISRSSQYILDRLNIPTENWLKITKDFGHLFKGAVGSLQALSQYCEHLERKRRQSAANCQRWLCG
MGSDKIHHHHHHMASAPQANLPMFYNDLMPLNSRDHAAWKAKNADAAPWLIGQHAIPLTAEEFPQAARHYPIIFASGDNPVPLALMGLNEGVNVFVDEDGKVTQPVYIPAYVRRYPFLLAKLNPNSEELSLCFDPSSGLIGDSVDGVELFSDGQPSEATKAALGFCEQFEQAGQRTQAFIDELKKHDLLMEGEVAIQQQGNEQPFIYRGFQMVNQDKLRETRGDVLRGWAQSGLLPLLYAHLFSLELISQIFGAQVQMGKGPIPATPVPAE
MGSDKIHHHHHHMASLLALDFDGVLCDGLREYFLAAWQAGCDRDPSWPEVPEPSLEDRFRLLRPVIEQGWEMPVLLQALRREVADAEVLADWPQLCDRVLKDWGLTTTELSQAMDRVRDRWIKRDRKEWLQLHHFYPGVAERLAQQTAPWVIISTKDGRFIAELLEQIPNLQPPLAIYGKEVGVPKTQTLIQLQVEFEQIAFVEDRLPALEAAAQLESVDLYLADWGYNTDRDRQQAMTSDRIQLLRLTDFSSGRSPALAASPVES
MGSDKIHHHHHHMATANKNLKATWVATVTNLDWPSVSSVAITDEAARVSKQKEELTGILDEIVAMKMNAVIFQVVPCADAFYASDLLPWSKYLTGTLGKNPGFDPLAYAIEQAHARNIELHAWVNPYRVSMNASDATIEELNNSSSDSPASVFKTHPEWTGTAANRFVLNPGIPEVQTWVSNIVEEIVTKYDVDAIQFDDYFYYETASSLLQDDATYQKYNTNFTTKADWRRNNTYSLVDTCHKKIAAVKANVLFGVSPAGVWRNKSDDPLGSDTQAGASNYDFAYADTRKWVIDGIIDYIAPQVYWPFAREVARYDVITQWWADTVSGTGTALYIGMALYKVGTASETEPDWTVEGGVPEITRQLDLNDSLTEVSGCMLFRHMFLRASQTQQVVDYLKLRWADV
MGSDKIHHHHHHMATENALYEILTEKIKQDTLVLPTLPEVALKVRSAADDPDINLNQMSDIIAHDPALSLGMLKVANNALMGRSIKVETVPQAVTRIGLIQIKSIATAMAIEQVFVSNNDVVAMYMNKAWVKTIDIASVAISLMNIYLKENKHTSLSLDTITLASLIHNIGVLPILTEAENHPDVFANPTFLQQAIIKLSGRVGGAITRKWGFSEEFTLLAESWSDLTILPSEVHYLDFIRAGAIYHNVFKNESTKVALLNNYTKKGILPEVDYMDSDEFKGMCEDVRAMFI
MGSDKIHHHHHHMATIEILGFPHAYELTAPTSYPDALVFIHGWLNSRGYWQPVTSRLSVDFQCLSYDLRGFGESQSQLETDFHRGSSSASLSAQSLQEINLSFDSLYTPAAYAQDLAALLEQLNITSAWLVGHSLGGTIALWAAAQIPQRIKGVICINAGGGIYLKEAFEQFRMAGQRFLQVRPRWLSQLPLIDLLFTRASVSRPLDRQWARQRVIDFVVADPEAALGALLDSTTEDEVNRLPKLVSQLKQPVYFLAGTDDKVMEPKYVRHLASFHPLFQYCGDNVIEIPDCGHLAMLEQPDAVASHIKSLVIGHG
MGSDKIHHHHHHMATPETILSVKDLRVRFRTLDGAVEAVKGINIHVNAGETVAVVGESGSGKSQTMMAAMSLLASNGEATGSVDYRGRNLLTLSKSDLNKVRGAKISMIFQEPMTSLDPLYSIGNQLIEPIRRHRGLNAAEAREEALKLLRLVHIPDPERRMKSYPHEMSGGQRQRVMIAMALANDPDILIADEPTTALDVTIQAQILMLLAELQRKLGMAIVFITHDLGIVRRFADRVYVMRQGEVVEEGEAGAIFANPQHAYTKMLLAAEPTGSKAAPPANAPVVLEGRHVEVTFKIGGGFLAGEPLMLRAVDDISIRLQRNQTIGIVGESGSGKSTLGRALLRLLPSDGLIRFGDRDISTADRQAMRPLRRQMQLVFQDPFGSLSPRMTVGQVITEGLLVHEPNLSGKQRDQRAVEALREVGLDPNARNRYPHEFSGGQRQRIAIARAMILKPKMVVLDEPTSALDRSVQKQIVELLRKLQADHELSYLFISHDLSVVRAMADYIIVMKQGKIVEEGPTEAIFSNPQHVYTQTLMAAAIDVTRFRLSA
MGSDKIHHHHHHMATSQERLGMNLKKCIQRLRKVANRGPSHKARLENIDEKIVVTGTRGKSGATRWLYEILYGRGRDAFAKITGNRPLVLHDGESHPIERGRRVTLYENEAQLRQYAPVETAIFENQAIGEYTTRTVHQRFTDPDVIFLTNIRSDHLDWLGDTPTQIARSFARTIPDGVTLVVGEQRPTLRAMLKRELEETDVQIRWVLVPKALQNVPGAETILGLNDVLEALGEQPLSDRQIEAYIDEMQVRWTTLADGRVYNAASVNDIDSTEIVRRALDDNDVDTIQPLIYLRPDRRARTASFLSYLDGLYSDDVFEVTHAVGPHAELFDNQASFPVATHDASKSASAVLDAALSPGWPVFIMGNTVADFMRDLEAEIEARRVDSSQGMPEKSTSANEKRAIERPQ
MGSDKIHHHHHHMAVGKNNNKMGKKGGKKKAVDPFSRKEWYDIKAPNMFNTRQVGKTLINRTQGTKIASEGLKGRVFEVSLGDLNNSEADFRKFKLIAEDVQGKNVLTNFHAMSMTHDKLCSIVKKWHTLIEANTAVKTTDGYTLRVFVIAFTKKSVNQVKKTSYTKTSKIRKIRSEMIGCIEKEVTGCDLKEVVSKLIPDSIGKDIEKTCSKLYPLQEVYIRKVKIIKRPKVDLGRLHDLHGDSITVGADGEKVDRPDDYEPPVQQEV
MGSDKIHHHHHHMAVQAKQCKAVLLCGYYGEHNLGDDALLQVLLEELPSSLQPWITANDSNVIKGLAPKAQVINRRSLLESIRALFQVQGLILGGGSLLQDSTSFKSLIYYLILIVIAQQRGVPVLLWGQGLGPFRYRLSRWMVRRVLRRVQAISWRDPDSFQLAEQWCLPSPMLMAPDPVWQLPSRSWEGGQAVVLCWRSTSMLDRFGWQHLLQALEMILTDIDAPVHWLAFHQRQDEELFRKLDRQGLISSSLRSRSHSFAFDSLTEVMNQFTMARLVLPMRLHALILAQLAGSPTVALSYDPKVSSAALMANVPFTDLQSLPDIRLLAGLWGQVLDVPPDLGKIEAIRKHASQHSKIIDKVFN
MGSDKIHHHHHHMAVRPYWKGYLKLSLVTCPVQMMPATSESEKVRFHTLNRETQNRVVSHYVDSVTGKEVKDEDEVKGYQRGENEYIILEDEELENVALDSTKTIDISTFTPRDSVEWIWLDTPYYLSPNDPVGQEAFSVIRDAMEAQNMVGISRLVISRRERAVMLEPRGKGIVLWTLRYGDEVRDEDTYFAGIDDEETADREMMPLVQQLIKKQTKHWDAKMVIDPVQERLLDIIAAKKKALKKSARAKPSAPAKSTPSNVINIMDALKKSVAAENRSSK
MGSDKIHHHHHHMAVVCRRITASSRTYSLSALTRCLQEEAAAIAVAAERLSSSQVEKALVLLERCSDQRAKLVITGVGKSGIVARKIAATFSSIGLMALYLNPLDAMHGDLGVVAQEDVCLLLSNSGETAELLEVLPHLKRRGTARIALVGKPDSSLARGSDVVLEASVDREVCPLNLAPTASTAVAMAIGDALAAIWMERRNISPADFAFNHPAGSLGKQLTLTASDLMVPVEKVQPLQPNTSLQEVICKLTQDGIGSGWVEDPSTAGLLLGLITDGDLRRALRDHSAENWASLSAAELMTADPITVDADLLAVEAIKQMECNRRKPISVLPVVGPDSSGNLLLGLLRLHDLIQAGLT

From the DeepSol protein solubility set
